Data on 2 molecules can be found in paper PMC3468530, “Structural and Enzymatic characterization of the lactonase SisLac from Sulfolobus islandicus” (PLoS ONE, 2012).

The target in series [1] is SisLac, Phosphotriesterase-Like Lactonase from Sulfolobus islandicus strain M.16.4 (Sulfolobus islandicus strain M.16.4). Nature of the series: dynamic light scattering; room temperature, 30 µL of purified protein at 2.5 mg/mL in activity buffer (HEPES 50 mM pH 8, NaCl 150 mM, CoCl2 0.2 mM), 633 nm.
Series [2] has the same target. The series can be described thus: SEC-MALS; KW803 column (Shodex), room temperature (25°C), 0.5 ml/min, activity buffer (HEPES 50 mM, NaCl 150 mM, CoCl2 0.2 mM) with pH adjusted to 7.3; static and quasi-elastic light scattering, refractometry. In general terms: Size exclusion chromatography separates by hydrodynamic size, large species first.
Series [3] deals with the molecule itself. The description is as above.

The stoichiometry N is the number of molecules, sites or subunits per partner or assembly. Consider “SisLac, Phosphotriesterase-Like Lactonase from Sulfolobus islandicus strain M.16.4 (enzyme)”, for which the stoichiometry N in series [1] and in series [2] was 2 throughout.

B1: SsoPox, Phosphotriesterase-Like Lactonase from Sulfolobus solfataricus (enzyme)
chain: MRIPLVGKDSIESKDIGFTLIHEHLRVFSEAVRQQWPHLYNEDEEFRNAVNEVKRAMQFGVKTIVDPTVMGLGRDIRFMEKVVKATGINLVAGTGIYIYIDLPFYFLNRSIDEIADLFIHDIKEGIQGTLNKAGFVKIAADEPGITKDVEKVIRAAAIANKETKVPIITHSNAHNNTGLEQQRILTEEGVDPGKILIGHLGDTDNIDYIKKIADKGSFIGLDRYGLDLFLPVDKRNETTLRLIKDGYSDKIMISHDYCCTIDWGTAKPEYKPKLAPRWSITLIFEDTIPFLKRNGVNEEVIATIFKENPKKFFS
notes: SsoPox, Phosphotriesterase-Like Lactonase of Sulfolobus solfataricus (strain MT4, GenBank AAW47234.1); made from the plasmid pET22b-SsoPox; Plasmid pET22b-SsoPox (GeneArt); also called wt SsoPox; source: E. coli BL21(DE3)-pGro7/GroEL, purified (70°C heat step, ammonium sulfate precipitation, size exclusion chromatography)
Take B1: in series [3], the “stoichiometry N” value is 2.
